The values that follow come from publication PMC7958410, “Hepatitis B virus X protein promotes vimentin expression via LIM and SH3 domain protein 1 to facilitate epithelial-mesenchymal transition and hepatocarcinogenesis” (Cell Communication and Signaling : CCS, 2021).

In this assay the target is T1, His-vimentin (UniProt P08670 1-466).
T1 construct: vimentin; also called vimentin with His Tag; source: E. coli DH5α, purified by His-beads
In words: pull-down; GST fusion bound to glutathione-Sepharose beads incubated with purified His-tagged protein at 4 °C; washed 3 times with binding buffer; western blot. Particulars: both partners purified. (A western blot detects proteins with antibodies after separation by electrophoresis.)

T1 sequence (P08670 whole entry): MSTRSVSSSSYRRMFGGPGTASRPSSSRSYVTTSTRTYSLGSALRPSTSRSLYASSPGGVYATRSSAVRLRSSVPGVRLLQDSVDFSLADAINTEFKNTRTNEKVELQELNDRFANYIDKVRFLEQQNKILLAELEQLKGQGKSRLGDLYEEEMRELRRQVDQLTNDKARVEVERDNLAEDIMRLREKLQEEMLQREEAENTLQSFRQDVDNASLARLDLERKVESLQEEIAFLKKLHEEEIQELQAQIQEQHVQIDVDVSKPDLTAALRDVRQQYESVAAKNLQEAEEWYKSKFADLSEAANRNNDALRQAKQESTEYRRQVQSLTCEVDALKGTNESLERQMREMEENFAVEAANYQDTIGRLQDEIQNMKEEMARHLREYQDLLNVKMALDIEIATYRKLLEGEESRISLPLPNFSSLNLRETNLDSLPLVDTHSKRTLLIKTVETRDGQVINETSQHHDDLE

B1: GST-LASP1 (natural protein, UniProt Q14847 1-261, looked up)
chain: MNPNCARCGKIVYPTEKVNCLDKFWHKACFHCETCKMTLNMKNYKGYEKKPYCNAHYPKQSFTMVADTPENLRLKQQSELQSQVRYKEEFEKNKGKGFSVVADTPELQRIKKTQDQISNIKYHEEFEKSRMGPSGGEGMEPERRDSQDGSSYRRPLEQQQPHHIPTSAPVYQQPQQQPVAQSYGGYKEPAAPVSIQRSAPGGGGKRYRAVYDYSAADEDEVSFQDGDTIVNVQQIDDGWMYGTVERTGDTGMLPANYVEAI
notes: LIM and SH3 domain protein 1 (LASP1); also called LASP1 with GST Tag
B1: the binding result is recorded as “binds”.
